Measurements from patent US20240261333A1 (published 2024).
Blank lines part the entries; values can stand above or below the binder they belong to.

Legend:
DDX5 = target: T1, DDX5 (human, UniProt P17844 1-614); assay: co-IP, anti-FLAG, lysate of cells with C-FLAG B3GNT2; mass spectrometry
T1 construct: also called NP_001307526.1

NUFIP2 = target: T2, NUFIP2 (human, UniProt Q7Z417 1-695); assay: as above
T2 construct: also called NP_065823.1
T2 sequence (looked up): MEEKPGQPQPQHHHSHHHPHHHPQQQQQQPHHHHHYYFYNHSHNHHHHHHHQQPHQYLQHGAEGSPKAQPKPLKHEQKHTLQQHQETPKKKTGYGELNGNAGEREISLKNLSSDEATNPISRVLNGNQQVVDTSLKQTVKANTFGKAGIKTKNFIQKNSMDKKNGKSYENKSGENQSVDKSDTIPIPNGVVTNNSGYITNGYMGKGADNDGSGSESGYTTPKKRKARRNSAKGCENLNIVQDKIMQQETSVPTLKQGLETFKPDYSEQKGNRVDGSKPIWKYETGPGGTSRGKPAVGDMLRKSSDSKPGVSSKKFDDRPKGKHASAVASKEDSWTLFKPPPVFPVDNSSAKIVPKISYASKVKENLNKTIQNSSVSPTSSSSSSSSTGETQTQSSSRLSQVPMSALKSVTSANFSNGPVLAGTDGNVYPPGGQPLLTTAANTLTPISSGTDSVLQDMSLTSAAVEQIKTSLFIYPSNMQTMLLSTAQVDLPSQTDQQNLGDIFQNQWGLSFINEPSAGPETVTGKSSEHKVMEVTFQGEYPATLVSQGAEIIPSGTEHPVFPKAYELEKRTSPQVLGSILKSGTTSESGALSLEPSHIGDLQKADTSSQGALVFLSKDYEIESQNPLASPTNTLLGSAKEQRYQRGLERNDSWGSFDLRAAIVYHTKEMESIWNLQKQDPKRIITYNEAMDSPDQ

MYH11 = target: T3, MYH11 (human, UniProt P35749-3 1-1945, limits assumed); assay: as above
T3 construct: also called NP_001035202.1 (+4)

HNRNPA2B1 = target: T4, HNRNPA2B1 (human, UniProt P22626-2 1-341); assay: as above
T4 construct: also called NP_002128.1 (+1)

LMNA = target: T5, LMNA (human, UniProt P02545 1-646, limits assumed); assay: as above
T5 construct: also called NP_733821.1
T5 sequence (looked up): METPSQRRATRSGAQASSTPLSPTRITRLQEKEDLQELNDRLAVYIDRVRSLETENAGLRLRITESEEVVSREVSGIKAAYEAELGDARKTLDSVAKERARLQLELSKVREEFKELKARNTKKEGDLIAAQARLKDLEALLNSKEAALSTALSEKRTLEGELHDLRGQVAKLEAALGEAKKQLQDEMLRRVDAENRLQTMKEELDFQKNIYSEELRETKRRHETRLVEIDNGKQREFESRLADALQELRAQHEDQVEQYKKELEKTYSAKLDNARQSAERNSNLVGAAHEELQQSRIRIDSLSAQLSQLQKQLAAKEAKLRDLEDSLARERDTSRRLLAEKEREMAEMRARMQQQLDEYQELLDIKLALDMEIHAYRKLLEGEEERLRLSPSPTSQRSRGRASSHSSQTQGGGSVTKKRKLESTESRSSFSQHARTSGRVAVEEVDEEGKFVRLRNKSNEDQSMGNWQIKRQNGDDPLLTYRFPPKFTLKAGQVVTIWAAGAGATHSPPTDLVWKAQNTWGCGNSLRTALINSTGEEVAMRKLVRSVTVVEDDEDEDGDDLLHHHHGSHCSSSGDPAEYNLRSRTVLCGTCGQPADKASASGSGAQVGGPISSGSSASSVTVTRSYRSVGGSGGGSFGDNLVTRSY

ATXN2 = target: T6, ATXN2 (human, UniProt Q99700 1-1313); assay: as above
T6 construct: also called NP_002964.3

TFAM = target: T7, TFAM (human, UniProt Q00059 43-246); assay: co-IP with mouse anti-FLAG from lysate of cells overexpressing N-FLAG B3GNT2, then mass spectrometry
T7 construct: Identified by mass spectrometry in the co-IP; also called NP_003192.1
T7 sequence (looked up): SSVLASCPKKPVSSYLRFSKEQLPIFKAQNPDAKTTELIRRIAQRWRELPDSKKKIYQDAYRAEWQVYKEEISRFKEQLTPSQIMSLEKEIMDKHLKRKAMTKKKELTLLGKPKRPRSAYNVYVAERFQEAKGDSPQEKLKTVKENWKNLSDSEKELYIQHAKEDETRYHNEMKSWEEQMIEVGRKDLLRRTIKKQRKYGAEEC
Procedure: Cells were plated in 10-cm cell culture dishes and grown to 60-80% confluency. For each condition, two biological replicates were harvested for co-IP. Cells were washed with PBS and 4 mL of lysis buffer (20 mM HEPES, 1% Triton X-100, 150 mM NaCl, 1 mM EDTA, and 10% glycerol) containing protease inhibitor cocktail was added. Cells were scraped and lysate was incubated at 4° C. under rotary agitation for 1 h. Lysate was centrifuged at 14,000×g for 10 min at 4° C. Supernatant was transferred to a new tube and an aliquot was taken as the input. […] For Western blots, 10 μg/mL Chicken Anti-FLAG (Aves labs ET-DY100) and IgY control (R&D Systems AB-101-C) antibodies were biotinylated (Thermo Fisher Scientific 90407) and added to the respective conditions. Lysates with antibodies were incubated at 4° C. under rotary agitation overnight. For each mL of lysate, 50 μL of Pierce Protein A/G Magnetic Beads (Mass spectrometry; Thermo Fisher Scientific 88803) or Pierce Streptavidin Magnetic Beads (Western blot; Thermo Fisher Scientific 88817) was washed twice with lysis buffer. Lysates with antibodies were added to the beads and incubated at 4° C. under rotary agitation for 4 h. Beads were washed with lysis buffer 3 times and resuspended in lysis buffer for storage.
Magnetic beads were resuspended in 100 mM Tris pH 7.8, reduced, alkylated and digested with trypsin at 37° ° C. overnight. This solution was subjected to solid phase extraction to concentrate the peptides and remove unwanted reagents followed by injection onto a Shimadzu HPLC with fraction collector. Eight fractions were collected and after concentration were injected on a Waters NanoAcquity HPLC equipped with a self-packed Aeris 3 μm C18 analytical column 0.075 mm by 20 cm, (Phenomenex). Peptides were eluted using standard reverse-phase gradients. The effluent from the column was analyzed using a Thermo Orbitrap Elite mass spectrometer (nanospray configuration) operated in a data dependent manner for 54 minutes. The resulting fragmentation spectra were correlated against the known database using Proteome Discover 1.4 (Thermo Fisher Scientific).

T3 sequence (P35749 other isoform, or with tags, fused parts or gaps limits assumed): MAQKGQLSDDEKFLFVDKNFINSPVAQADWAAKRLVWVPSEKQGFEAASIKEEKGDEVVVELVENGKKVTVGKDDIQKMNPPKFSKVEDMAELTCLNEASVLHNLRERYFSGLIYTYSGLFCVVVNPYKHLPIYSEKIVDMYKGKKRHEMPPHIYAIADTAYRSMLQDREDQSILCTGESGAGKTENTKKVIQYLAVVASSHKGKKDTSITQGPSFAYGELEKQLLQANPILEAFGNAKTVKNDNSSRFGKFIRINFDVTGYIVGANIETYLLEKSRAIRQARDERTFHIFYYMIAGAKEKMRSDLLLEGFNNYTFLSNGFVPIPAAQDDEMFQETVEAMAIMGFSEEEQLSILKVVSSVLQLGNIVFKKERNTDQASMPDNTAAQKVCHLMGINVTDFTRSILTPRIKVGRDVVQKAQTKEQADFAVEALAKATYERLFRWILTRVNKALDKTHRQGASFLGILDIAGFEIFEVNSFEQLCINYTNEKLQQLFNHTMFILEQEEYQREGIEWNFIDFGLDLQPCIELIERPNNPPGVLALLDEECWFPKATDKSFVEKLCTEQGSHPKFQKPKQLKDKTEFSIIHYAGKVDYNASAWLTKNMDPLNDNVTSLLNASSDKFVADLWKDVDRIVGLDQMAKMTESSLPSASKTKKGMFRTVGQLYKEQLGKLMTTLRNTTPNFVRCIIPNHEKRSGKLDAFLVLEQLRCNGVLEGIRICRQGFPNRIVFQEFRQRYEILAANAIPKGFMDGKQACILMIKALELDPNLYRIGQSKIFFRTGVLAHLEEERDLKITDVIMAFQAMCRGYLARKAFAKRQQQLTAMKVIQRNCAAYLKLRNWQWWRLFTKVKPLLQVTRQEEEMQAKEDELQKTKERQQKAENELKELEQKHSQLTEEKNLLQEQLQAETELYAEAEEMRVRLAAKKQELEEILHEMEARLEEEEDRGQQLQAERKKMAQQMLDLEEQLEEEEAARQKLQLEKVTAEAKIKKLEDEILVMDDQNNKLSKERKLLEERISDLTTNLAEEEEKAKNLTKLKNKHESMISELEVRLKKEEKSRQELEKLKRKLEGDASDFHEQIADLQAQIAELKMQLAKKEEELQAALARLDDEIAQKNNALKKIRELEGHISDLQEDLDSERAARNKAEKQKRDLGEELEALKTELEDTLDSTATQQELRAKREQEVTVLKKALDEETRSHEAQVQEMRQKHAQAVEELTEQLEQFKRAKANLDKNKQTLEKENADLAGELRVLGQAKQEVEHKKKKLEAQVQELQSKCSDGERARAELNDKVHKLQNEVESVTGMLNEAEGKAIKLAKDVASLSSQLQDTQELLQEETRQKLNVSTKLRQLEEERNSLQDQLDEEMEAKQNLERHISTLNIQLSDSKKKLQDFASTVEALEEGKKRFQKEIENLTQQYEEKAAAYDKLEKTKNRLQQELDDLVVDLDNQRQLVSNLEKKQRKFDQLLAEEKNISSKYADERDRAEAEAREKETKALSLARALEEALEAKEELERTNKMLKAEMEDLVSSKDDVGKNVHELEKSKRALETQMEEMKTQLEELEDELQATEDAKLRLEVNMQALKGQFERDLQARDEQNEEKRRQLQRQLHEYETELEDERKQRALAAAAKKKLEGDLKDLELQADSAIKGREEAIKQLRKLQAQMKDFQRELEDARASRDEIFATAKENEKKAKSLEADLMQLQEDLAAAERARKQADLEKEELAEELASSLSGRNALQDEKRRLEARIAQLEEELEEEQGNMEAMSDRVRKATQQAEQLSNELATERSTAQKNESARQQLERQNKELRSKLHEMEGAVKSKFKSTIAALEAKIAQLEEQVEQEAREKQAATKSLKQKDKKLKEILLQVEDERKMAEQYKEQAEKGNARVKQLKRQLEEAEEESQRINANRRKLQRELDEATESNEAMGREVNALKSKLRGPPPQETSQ
T6 sequence (Q99700 whole entry): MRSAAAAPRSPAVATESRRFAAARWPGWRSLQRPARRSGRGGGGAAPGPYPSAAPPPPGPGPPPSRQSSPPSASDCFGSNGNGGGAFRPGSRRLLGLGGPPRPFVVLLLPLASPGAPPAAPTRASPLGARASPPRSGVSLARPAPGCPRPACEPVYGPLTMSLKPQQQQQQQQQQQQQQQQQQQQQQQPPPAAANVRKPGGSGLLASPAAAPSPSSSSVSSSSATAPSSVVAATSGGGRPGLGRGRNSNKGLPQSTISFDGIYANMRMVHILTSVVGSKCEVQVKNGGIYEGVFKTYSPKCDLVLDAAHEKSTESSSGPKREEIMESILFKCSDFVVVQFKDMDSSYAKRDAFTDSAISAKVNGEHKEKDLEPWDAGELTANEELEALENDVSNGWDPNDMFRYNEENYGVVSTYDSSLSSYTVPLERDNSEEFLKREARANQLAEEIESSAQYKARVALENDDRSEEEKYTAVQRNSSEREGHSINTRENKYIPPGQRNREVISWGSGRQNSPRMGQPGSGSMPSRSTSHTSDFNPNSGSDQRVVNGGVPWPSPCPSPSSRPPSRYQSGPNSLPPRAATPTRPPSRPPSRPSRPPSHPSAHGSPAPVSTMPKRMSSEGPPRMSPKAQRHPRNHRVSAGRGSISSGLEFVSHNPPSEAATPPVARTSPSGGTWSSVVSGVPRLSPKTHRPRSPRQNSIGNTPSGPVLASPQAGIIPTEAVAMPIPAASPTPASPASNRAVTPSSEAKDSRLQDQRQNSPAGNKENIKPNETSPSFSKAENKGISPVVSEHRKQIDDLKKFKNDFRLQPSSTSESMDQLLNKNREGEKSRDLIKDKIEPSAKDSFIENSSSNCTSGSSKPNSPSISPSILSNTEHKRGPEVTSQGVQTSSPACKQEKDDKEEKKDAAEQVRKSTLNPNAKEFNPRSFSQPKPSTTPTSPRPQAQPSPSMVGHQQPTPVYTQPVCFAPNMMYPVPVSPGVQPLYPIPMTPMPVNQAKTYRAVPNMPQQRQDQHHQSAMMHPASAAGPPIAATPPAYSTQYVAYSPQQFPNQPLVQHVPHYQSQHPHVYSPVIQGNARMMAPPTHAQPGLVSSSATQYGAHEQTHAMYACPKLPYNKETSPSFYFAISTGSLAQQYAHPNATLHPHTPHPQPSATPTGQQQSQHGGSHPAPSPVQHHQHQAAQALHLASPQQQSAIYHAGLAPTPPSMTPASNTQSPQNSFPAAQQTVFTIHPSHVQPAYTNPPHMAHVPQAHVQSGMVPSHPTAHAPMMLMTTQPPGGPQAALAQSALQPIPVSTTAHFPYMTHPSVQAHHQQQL
T4 sequence (P22626 other isoform, or with tags, fused parts or gaps limits assumed): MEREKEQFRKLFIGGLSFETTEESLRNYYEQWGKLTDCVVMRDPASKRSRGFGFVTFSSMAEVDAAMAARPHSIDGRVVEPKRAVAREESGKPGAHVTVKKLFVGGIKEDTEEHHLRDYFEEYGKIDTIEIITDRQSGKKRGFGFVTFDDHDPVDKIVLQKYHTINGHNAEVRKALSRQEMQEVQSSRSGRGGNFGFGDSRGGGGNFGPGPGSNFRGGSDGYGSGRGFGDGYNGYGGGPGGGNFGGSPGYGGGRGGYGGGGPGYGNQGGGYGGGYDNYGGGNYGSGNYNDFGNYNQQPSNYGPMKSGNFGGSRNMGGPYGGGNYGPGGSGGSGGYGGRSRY
T1 sequence (P17844 whole entry): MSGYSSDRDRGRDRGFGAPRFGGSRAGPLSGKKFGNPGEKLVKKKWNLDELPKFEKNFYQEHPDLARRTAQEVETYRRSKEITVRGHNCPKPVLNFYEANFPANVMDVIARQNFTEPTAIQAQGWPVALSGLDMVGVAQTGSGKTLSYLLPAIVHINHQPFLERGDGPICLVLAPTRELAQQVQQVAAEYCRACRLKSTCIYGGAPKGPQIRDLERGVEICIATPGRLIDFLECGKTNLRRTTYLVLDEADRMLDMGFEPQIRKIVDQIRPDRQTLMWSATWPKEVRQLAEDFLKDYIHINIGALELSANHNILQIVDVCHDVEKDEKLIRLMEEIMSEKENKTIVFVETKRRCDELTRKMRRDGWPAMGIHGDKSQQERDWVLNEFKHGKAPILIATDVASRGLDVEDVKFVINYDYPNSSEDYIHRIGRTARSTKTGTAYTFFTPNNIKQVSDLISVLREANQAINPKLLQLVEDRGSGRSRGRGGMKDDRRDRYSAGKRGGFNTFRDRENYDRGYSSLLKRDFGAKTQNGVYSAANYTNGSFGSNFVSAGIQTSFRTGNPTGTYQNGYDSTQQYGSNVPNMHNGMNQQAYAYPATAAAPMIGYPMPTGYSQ

co-IP mass spectrometry count (DDX5): 22
co-IP mass spectrometry count (NUFIP2): 5
co-IP mass spectrometry count (MYH11): 7
co-IP mass spectrometry count (HNRNPA2B1): 8
co-IP mass spectrometry count (LMNA): 22
co-IP mass spectrometry count (ATXN2): 3
B1: C-terminal FLAG tagged B3GNT2 (enzyme, human, UniProt Q9NY97 1-397, looked up)
chain: MSVGRRRIKLLGILMMANVFIYFIMEVSKSSSQEKNGKGEVIIPKEKFWKISTPPEAYWNREQEKLNRQYNPILSMLTNQTGEAGRLSNISHLNYCEPDLRVTSVVTGFNNLPDRFKDFLLYLRCRNYSLLIDQPDKCAKKPFLLLAIKSLTPHFARRQAIRESWGQESNAGNQTVVRVFLLGQTPPEDNHPDLSDMLKFESEKHQDILMWNYRDTFFNLSLKEVLFLRWVSTSCPDTEFVFKGDDDVFVNTHHILNYLNSLSKTKAKDLFIGDVIHNAGPHRDKKLKYYIPEVVYSGLYPPYAGGGGFLYSGHLALRLYHITDQVHLYPIDDVYTGMCLQKLGLVPEKHKGFRTFDIEEKNKNNICSYVDLMLVHSRKPQEMIDIWSQLQSAHLKC
notes: Overexpressed in cells and pulled down from the lysate with mouse anti-FLAG antibody; also called C-FLAG B3GNT2; C-term flag; not shown: C-terminal FLAG tag

co-IP mass spectrometry count (N-term FLAG) (TFAM): 0
B2: N-terminal FLAG tagged B3GNT2 (enzyme, human, UniProt Q9NY97 1-397, looked up)
chain: B1 chain
notes: FLAG-tagged ORF overexpressed in A375 cells; bait of the co-IP with mouse anti-FLAG; also called N-FLAG B3GNT2; N-term FLAG; not shown: N-terminal FLAG tag
